In article PMC6978808, “In Situ Structure of an Intact Lipopolysaccharide-Bound Bacterial Surface Layer” (Cell, 2020):
Several values for one entry are separate records, joined by “and”; a condition that tells them apart may be missing. Identical values can stand only once.

Key:
[1] = molecular target: the molecule itself; assay: native MS; RsaANTD:PS sample after removal of Ca2+ on Zeba micro spin desalting columns
[2] = molecular target: the molecule itself; assay: native MS; purified RsaANTD:PS complex with Ca2+; Q-Exactive UHMR; tandem MS (HCD 220 V) to assign the oligomers
[3] = molecular target: the molecule itself; assay: cryo-EM structure; single-particle cryo-EM of the purified RsaANTD:PS complex, 3.7 Å; PS and Ca2+ bound

B1: N-terminal domain of RsaA (RsaANTD) (domain or fragment, Caulobacter crescentus)
chain: AYTTAQLVTAYTNANLGKAPDAATTLTLDAYATQTQTGGLSDAAALTNTLKLVNSTTAVAIQTYQFFTGVAPSAAGLDFLVDSTTNTNDLNDAYYSKFAQENRFINFSINLATGAGAGATAFAAAYTGVSYAQTVATAYDKIIGNAVATAAGVDVAAAVAFLSRQANIDYLTAFVRANTPFTAAADIDLAVKAALIGTILNAATVSGIGGYATATAAMINDLSDGALSTDNAAGVNLFTAYPSSGVSGSEN
notes: S-layer protein RsaA of Caulobacter crescentus (1026 residues), N-terminal domain; the introduction defines RsaANTD as residues 1-249; residues 2-243 are built in the cryo-EM model; Cleavage by TEV protease after Gln would leave Glu-Asn-Leu-Tyr-Phe-Gln; also called inner domain of the S-layer; source: C. crescentus rsaATEV250 strain
B1 was tested, and the “stoichiometry N” value [1] was 4, the “stoichiometry N” value [2] was 2 and the “stoichiometry N” value [3] was 21 and 20.
